Results published in publication PMC12749748, “Chemically-induced degradation of the endoplasmic-reticulum stress sensor IRE1 by a VHL-recruiting chimera” (Nature Communications, 2025).

Molecular target: Biotinylated human IRE1.KR protein (human) (UniProt O75460)
Test: SPR; Biacore S200, 20 °C; biotinylated IRE1.KR captured on a streptavidin chip (100-200 RU); VHL titrated without G6374, 8-point 2-fold series, top 5 µM, single cycle kinetics; 50 mM HEPES pH 7.4, 150 mM NaCl, 0.01% Tween 20, 0.2% PEG3350, 0.25 mM TCEP, 100 µg/ml ovalbumin, 2% DMSO

Chain of Biotinylated human IRE1.KR protein (human) (O75460 547-977): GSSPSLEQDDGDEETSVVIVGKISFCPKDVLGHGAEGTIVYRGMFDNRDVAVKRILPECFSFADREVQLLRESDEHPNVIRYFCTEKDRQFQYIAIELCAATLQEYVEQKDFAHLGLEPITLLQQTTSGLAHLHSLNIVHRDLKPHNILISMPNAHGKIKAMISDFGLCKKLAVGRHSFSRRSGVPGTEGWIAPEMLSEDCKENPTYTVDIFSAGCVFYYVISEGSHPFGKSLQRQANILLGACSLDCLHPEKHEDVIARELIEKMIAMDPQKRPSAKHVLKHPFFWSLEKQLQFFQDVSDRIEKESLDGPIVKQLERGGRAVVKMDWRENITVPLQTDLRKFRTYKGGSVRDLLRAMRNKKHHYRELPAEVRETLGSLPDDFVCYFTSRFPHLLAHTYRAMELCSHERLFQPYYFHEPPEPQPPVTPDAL

Which KD without G6374 does the source give for “his-VHL/EloB (VHL in complex with Elongin B) (from UniProt P40337 1-213; Q15370 1-118)” here?
Its KD without G6374 is > 10 µM.
